Data from US20160152957A1, “Methods of Producing 6-Carbon Monomers From 8-Carbon Compounds” (INVISTA North America S.á.r.l., priority 2014, published 2016).

What was measured:
Assay type in all cases: biochemical
[1] = ω-transaminase enzyme activity assay, reverse direction (6-aminohexanoate to adipate semialdehyde); conditions: cell free extract, 10 mM 6-aminohexanoate, 10 mM pyruvate, pH 7.5, 25° C., 24 h, RP-HPLC, against the empty vector control
Experimental: (§1) A nucleotide sequence encoding a His-tag was added to the nucleic acid sequences from Chromobacterium violaceum, Pseudomonas aeruginosa, Pseudomonas syringae, Rhodobacter sphaeroides, and Vibrio fluvialis encoding the ω-transaminases of SEQ ID NOs: 7, 8, 9, 10 and 12, respectively (see FIG. 6) such that N-terminal HIS tagged ω-transaminases could be produced. Each of the resulting modified genes was cloned into a pET21a expression vector under control of the T7 promoter and each expression vector was transformed into a BL21[DE3] E. coli host. The resulting recombinant E. coli strains were cultivated at 37° C. in a 250 mL shake flask culture containing 50 mL LB media and antibiotic selection pressure, with shaking at 230 rpm. Each culture was induced overnight at 16° C. using 1 mM IPTG.
(§2) The pellet from each induced shake flask culture was harvested via centrifugation. Each pellet was resuspended and lysed via sonication. The cell debris was separated from the supernatant via centrifugation and the cell free extract was used immediately in enzyme activity assays.
Enzyme activity assays in the reverse direction (i.e., 6-aminohexanoate to adipate semialdehyde) were performed in a buffer composed of a final concentration of 50 mM HEPES buffer (pH=7.5), 10 mM 6-aminohexanoate, 10 mM pyruvate and 100 μM pyridoxyl 5′ phosphate. Each enzyme activity assay reaction was initiated by adding cell free extract of the ω-transaminase gene product or the empty vector control to the assay buffer containing the 6-aminohexanoate and incubated at 25° C. for 24 h, with shaking at 250 rpm. The formation of L-alanine from pyruvate was quantified via RP-HPLC.

[2] = ω-transaminase enzyme activity assay, forward direction (adipate semialdehyde to 6-aminohexanoate); conditions: cell free extract, 10 mM adipate semialdehyde, 10 mM L-alanine, pH 7.5, 25° C., 4 h, RP-HPLC, against the empty vector control
Experimental: as §1, §2
Enzyme activity in the forward direction (i.e., adipate semialdehyde to 6-aminohexanoate) was confirmed for the transaminases of SEQ ID NO 7, SEQ ID NO 8, SEQ ID NO 9, SEQ ID NO 10 and SEQ ID NO 12. Enzyme activity assays were performed in a buffer composed of a final concentration of 50 mM HEPES buffer (pH=7.5), 10 mM adipate semialdehyde, 10 mM L-alanine and 100 μM pyridoxyl 5′ phosphate. Each enzyme activity assay reaction was initiated by adding a cell free extract of the ω-transaminase gene product or the empty vector control to the assay buffer containing the adipate semialdehyde and incubated at 25° C. for 4 h, with shaking at 250 rpm. The formation of pyruvate was quantified via RP-HPLC.

[3] = carboxylate reductase enzyme activity assay (adipate semialdehyde to hexanedial); conditions: purified enzyme enhanced by the gene product of sfp, 2 mM adipate semialdehyde, pH 7.5, room temperature, 20 min, against the empty vector control
Experimental: The N-terminal His-tagged carboxylate reductase of SEQ ID NO 6 (see Example 2 and FIG. 6) was assayed using adipate semialdehyde as substrate. The enzyme activity assay was performed in triplicate in a buffer composed of a final concentration of 50 mM HEPES buffer (pH=7.5), 2 mM adipate semialdehyde, 10 mM MgCl2, 1 mM ATP and 1 mM NADPH. The enzyme activity assay reaction was initiated by adding purified carboxylate reductase and phosphopantetheine transferase or the empty vector control to the assay buffer containing the adipate semialdehyde and then incubated at room temperature for 20 min. The consumption of NADPH was monitored by absorbance at 340 nm.

Molecule	ω-transaminase activity for converting 6-aminohexanoate to adipate semialdehyde (formation of L-alanine from pyruvate) [1]	ω-transaminase activity for converting adipate semialdehyde to 6-aminohexanoate (formation of pyruvate from L-alanine) [2]	carboxylate reductase activity for converting adipate semialdehyde to hexanedial (consumption of NADPH, absorbance at 340 nm) [3]
SEQ ID NO 10: Rhodobacter sphaeroides ω-transaminase, Genbank Accession No. ABA81135.1, N-terminal HIS tagged	accepted 6-aminohexanoate as substrate	accepted adipate semialdehyde as substrate	
SEQ ID NO 9: Pseudomonas syringae ω-transaminase, Genbank Accession No. AAY39893.1, N-terminal HIS tagged (protein, listed as Pseudomonas syringae, N-terminal His tag) MSANNPQTLEWQALSSEHHLAPFSDYKQLKEKGPRIITRAEGVYLWDSEGNKILDGMSGLWCVAIGYGREELADAASKQMRELPYYNLFFQTAHPPVLELAKAISDIAPEGMNHVFFTGSGSEGNDTMLRMVRHYWALKGQPNKKTIISRVNGYHGSTVAGASLGGMTYMHEQGDLPIPGVVHIPQPYWFGEGGDMTPDEFGIWAAEQLEKKILELGVENVGAFIAEPIQGAGGVIVPPDSYWPKIKEILSRYDILFAADEVICGFGRTSEWFGSDFYGLRPDMMTIAKGLTSGYVPMGGLIVRDEIVAVLNEGGDFNHGFTYSGHPVAAAVALENIRILREEKIVERVRSETAPYLQKRLRELSDHPLVGEVRGVGLLGAIELVKDKTTRERYTDKGAGMICRTFCFDNGLIMRAVGDTMIIAPPLVISFAQIDELVEKARTCLDLTLAVLQG	accepted 6-aminohexanoate as substrate	accepted adipate semialdehyde as substrate	
SEQ ID NO 7: Chromobacterium violaceum ω-transaminase, Genbank Accession No. AAQ59697.1, N-terminal HIS tagged (protein, listed as Chromobacterium violaceum, N-terminal His tag) MQKQRTTSQWRELDAAHHLHPFTDTASLNQAGARVMTRGEGVYLWDSEGNKIIDGMAGLWCVNVGYGRKDFAEAARRQMEELPFYNTFFKTTHPAVVELSSLLAEVTPAGFDRVFYTNSGSESVDTMIRMVRRYWDVQGKPEKKTLIGRWNGYHGSTIGGASLGGMKYMHEQGDLPIPGMAHIEQPWWYKHGKDMTPDEFGVVAARWLEEKILEIGADKVAAFVGEPIQGAGGVIVPPATYWPEIERICRKYDVLLVADEVICGFGRTGEWFGHQHFGFQPDLFTAAKGLSSGYLPIGAVFVGKRVAEGLIAGGDFNHGFTYSGHPVCAAVAHANVAALRDEGIVQRVKDDIGPYMQKRWRETFSRFEHVDDVRGVGMVQAFTLVKNKAKRELFPDFGEIGTLCRDIFFRNNLIMRACGDHIVSAPPLVMTRAEVDEMLAVAERCLEEFEQTLKARGLA	accepted 6-aminohexanoate as substrate	accepted adipate semialdehyde as substrate	
SEQ ID NO 12: Vibrio fluvialis ω-transaminase, Genbank Accession No. AEA39183.1, N-terminal HIS tagged (protein, listed as Vibrio fluvialis, N-terminal His tag) MNKPQSWEARAETYSLYGFTDMPSLHQRGTVVVTHGEGPYIVDVNGRRYLDANSGLWNMVAGFDHKGLIDAAKAQYERFPGYHAFFGRMSDQTVMLSEKLVEVSPFDSGRVFYTNSGSEANDTMVKMLWFLHAAEGKPQKRKILTRWNAYHGVTAVSASMTGKPYNSVFGLPLPGFVHLTCPHYWRYGEEGETEEQFVARLARELEETIQREGADTIAGFFAEPVMGAGGVIPPAKGYFQAILPILRKYDIPVISDEVICGFGRTGNTWGCVTYDFTPDAIISSKNLTAGFFPMGAVILGPELSKRLETAIEAIEEFPHGFTASGHPVGCAIALKAIDVVMNEGLAENVRRLAPRFEERLKHIAERPNIGEYRGIGFMWALEAVKDKASKTPFDGNLSVSERIANTCTDLGLICRPLGQSVVLCPPFILTEAQMDEMFDKLEKALDKVFAEVA	accepted 6-aminohexanoate as substrate	accepted adipate semialdehyde as substrate	
SEQ ID NO 6: Segniliparus rotundus carboxylate reductase, Genbank Accession No. ADG98140.1, N-terminal HIS tagged (protein, listed as Segniliparus rotundus, N-terminal His tag) MTQSHTQGPQASAAHSRLARRAAELLATDPQAAATLPDPEVVRQATRPGLRLAERVDAILSGYADRPALGQRSFQTVKDPITGRSSVELLPTFDTITYRELRERATAIASDLAHHPQAPAKPGDFLASIGFISVDYVAIDIAGVFAGLTAVPLQTGATLATLTAITAETAPTLFAASIEHLPTAVDAVLATPSVRRLLVFDYRAGSDEDREAVEAAKRKIADAGSSVLVDVLDEVIARGKSAPKAPLPPATDAGDDSLSLLIYTSGSTGTPKGAMYPERNVAHFWGGVWAAAFDEDAAPPVPAINITFLPLSHVASRLSLMPTLARGGLMHFVAKSDLSTLFEDLKLARPTNLFLVPRVVEMLYQHYQSELDRRGVQDGTREAEAVKDDLRTGLLGGRILTAGFGSAPLSAELAGFIESLLQIHLVDGYGSTEAGPVWRDGYLVKPPVTDYKLIDVPELGYFSTDSPHPRGELAIKTQTILPGYYKRPETTAEVFDEDGFYLTGDVVAQIGPEQFAYVDRRKNVLKLSQGEFVTLAKLEAAYSSSPLVRQLFVYGSSERSYLLAVIVPTPDALKKFGVGEAAKAALGESLQKIARDEGLQSYEVPRDFIIETDPFTVENGLLSDARKSLRPKLKEHYGERLEAMYKELADGQANELRDIRRGVQQRPTLETVRRAAAAMLGASAAEIKPDAHFTDLGGDSLSALTFSNFLHDLFEVDVPVGVIVSAANTLGSVAEHIDAQLAGGRARPTFATVHGKGSTTIKASDLTLDKFIDEQTLEAAKHLPKPADPPRTVLLTGANGWLGRFLALEWLERLAPAGGKLITIVRGKDAAQAKARLDAAYESGDPKLAGHYQDLAATTLEVLAGDFSEPRLGLDEATWNRLADEVDFISHPGALVNHVLPYNQLFGPNVAGVAEIIKLAITTRIKPVTYLSTVAVAAGVEPSALDEDGDIRTVSAERSVDEGYANGYGNSKWGGEVLLREAHDRTGLPVRVFRSDMILAHQKYTGQVNATDQFTRLVQSLLATGLAPKSFYELDAQGNRQRAHYDGIPVDFTAESITTLGGDGLEGYRSYNVFNPHRDGVGLDEFVDWLIEAGHPITRIDDYDQWLSRFETSLRGLPESKRQASVLPLLHAFARPGPAVDGSPFRNTVFRTDVQKAKIGAEHDIPHLGKALVLKYADDIKQLGLL			accepted adipate semialdehyde as substrate
SEQ ID NO 8: Pseudomonas aeruginosa ω-transaminase, Genbank Accession No. AAG08191.1, N-terminal HIS tagged (protein, listed as Pseudomonas aeruginosa, N-terminal His tag) MNARLHATSPLGDADLVRADQAHYMHGYHVFDDHRVNGSLNIAAGDGAYIYDTAGNRYLDAVGGMWCTNIGLGREEMARTVAEQTRLLAYSNPFCDMANPRAIELCRKLAELAPGDLDHVFLTTGGSTAVDTAIRLMHYYQNCRGKRAKKHVITRINAYHGSTFLGMSLGGKSADRPAEFDFLDERIHHLACPYYYRAPEGLGEAEFLDGLVDEFERKILELGADRVGAFISEPVFGSGGVIVPPAGYHRRMWELCQRYDVLYISDEVVTSFGRLGHFFASQAVFGVQPDIILTAKGLTSGYQPLGACIFSRRIWEVIAEPDKGRCFSHGFTYSGHPVACAAALKNIEIIEREGLLAHADEVGRYFEERLQSLRDLPIVGDVRGMRFMACVEFVADKASKALFPESLNIGEWVHLRAQKRGLLVRPIVHLNVMSPPLILTREQVDTVVRVLRESIEETVEDLVRAGHR		accepted adipate semialdehyde as substrate	
